# Patent publication US20050221355A1, “cDNA for human methylenetetrahydrofolate reductase and uses thereof” (McGill University, priority 1994, published 2005)
# Columns and labels:
# human MTHFR = assay: Enzymatic and thermolability assay of E. coli extracts expressing wild-type or mutagenized MTHFR cDNA; format: biochemical
# Experimental: Overnight cultures of JM105™ containing vector alone, vector+wild-type MTHFR cDNA, or vector+mutagenized cDNA were grown at 370° C. in 2×YT media with 0.05 mg/ml ampicillin. Fresh 10 ml. cultures of each were inoculated with approximately 50 μL of overnight cultures for a starting O.D. of 0.05, and were grown at 370° C. to an O.D. of 1 at 420 nM. Cultures were then induced for 2 hrs. with 1 mM IPTG and pelleted. The cells were resuspended in TE buffer with 2 μg/ml aprotinin and 2 μg/ml leupeptin (3.5×wet weight of cells). Cell suspensions were sonicated on ice for 3×15 sec. to break open cell membranes and then centrifuged for 30 min. at 4° C. to pellet cell debris and unlysed cells. The supernatant was removed and assayed for protein concentration with the Bio-Rad™ protein assay. […] Enzymatic assays were performed by established procedures; pre-treating the extracts at 46° C. for 5 min. before determining activity assessed thermolability. Specific activities (nmol formaldehyde/hr./mg. protein) were calculated for the 2 cDNA-containing constructs after subtraction of the values obtained with vector alone (to subtract background E. Coli MTHFR activity).
# [1] = system: colon carcinoma lines that carry the 677C/T mutation in MTHFR; assay: Methotrexate added to colon carcinoma lines in culture (cell kill), lines with the MTHFR mutation; format: cell-based; settings: colon carcinoma lines with the 677C/T MTHFR mutation; read-out: IC50 (concentration needed to kill half the cells)
# Experimental: (§1) Various doses of methotrexate (a drug used in treatment of cancer and arthritis, possibly other diseases) were added to colon carcinoma lines in culture. […] To extrapolate to the human condition, patients with this MTHFR mutation might require lower doses of methotrexate for therapy, or might be subject to methotrexate toxicity at high doses.
# [2] = system: colon carcinoma lines that do not carry the 677C/T mutation in MTHFR; assay: Methotrexate added to colon carcinoma lines in culture (cell kill), lines without the MTHFR mutation; format: cell-based; settings: colon carcinoma lines without the 677C/T MTHFR mutation; read-out: IC50 (concentration needed to kill half the cells)
# Experimental: as §1
Molecule,"mean specific activity before heating (human MTHFR; Exp. 1, vector-alone value subtracted)","mean specific activity before heating (human MTHFR; Exp. 2, vector-alone value subtracted)",IC50 [1] [nM],IC50 [2] [nM]
"MTHFR: recombinant human methylenetetrahydrofolate reductase, about 70 kDa, expressed in E. coli from the wild-type 2.2 kb cDNA",3.8 nmol formaldehyde/hr./mg. protein,6.2 nmol formaldehyde/hr./mg. protein,–,–
CN(Cc1cnc2nc(N)nc(N)c2n1)c1ccc(C(=O)N[C@@H](CCC(=O)O)C(=O)O)cc1 [methotrexate],–,–,~20,~150
